From publication PMC4605325, “The STAT3 HIES mutation is a gain-of-function mutation that activates genes via AGG-element carrying promoters” come the findings set out here.

Series [1] has as its target T1, Myc-STAT3 wild type (purified) (UniProt P40763 1-770). Briefly: competition; 200-fold unlabeled competitor; Pull-down: 20 mM Hepes pH 7.9, 100 mM KCl, 5 mM MgCl2, 0.1 mM EDTA, 4 mM DTT, 12% glycerol, 60 min room temperature (Fig 6D: 30 min on ice); EMSA: LightShift chemiluminescent kit, buffer not stated. The settings on record: protein: recombinant; tags: Myc; chain copies: 2.

The target of series [2] is Myc-STAT3 1-355 (purified) (UniProt P40763 1-355). As to the kind of experiment: pull-down; IL-6; Pull-down: 20 mM Hepes pH 7.9, 100 mM KCl, 5 mM MgCl2, 0.1 mM EDTA, 4 mM DTT, 12% glycerol, 60 min room temperature (Fig 6D: 30 min on ice); EMSA: LightShift chemiluminescent kit, buffer not stated. The settings on record: protein: recombinant; tags: Myc; label: 5'-biotin. For orientation: Mobility shift assays separate free from complexed probe on a gel.

Series [3] has as its target Myc-STAT3 C-terminal region (purified) (UniProt P40763 465-770). The series is described as above. As to conditions: protein: recombinant; tags: Myc; label: 5'-biotin.
For series [4], the target named is Myc-STAT3 R382Q (purified) (UniProt P40763 1-770, R382Q). As to the kind of experiment: pull-down; IL-6; enhanced vs WT; Pull-down: 20 mM Hepes pH 7.9, 100 mM KCl, 5 mM MgCl2, 0.1 mM EDTA, 4 mM DTT, 12% glycerol, 60 min room temperature (Fig 6D: 30 min on ice); EMSA: LightShift chemiluminescent kit, buffer not stated. As to conditions: protein: recombinant; tags: Myc; chain copies: 2; label: 5'-biotin.

Series [5] deals with Myc-STAT3 V461/462/463A (purified) (UniProt P40763 1-770, V461A;V462A;V463A). The description is as above. As to conditions: protein: recombinant; tags: Myc; chain copies: 2; label: 5'-biotin.
The target of series [6] is T1, Myc-STAT3 wild type (purified). Briefly: EMSA; 2 ug protein, 1 nM probe; less efficient than SIE; Pull-down: 20 mM Hepes pH 7.9, 100 mM KCl, 5 mM MgCl2, 0.1 mM EDTA, 4 mM DTT, 12% glycerol, 60 min room temperature (Fig 6D: 30 min on ice); EMSA: LightShift chemiluminescent kit, buffer not stated. The settings on record: protein: recombinant; tags: Myc; chain copies: 2; label: 5'-biotin.

T1 sequence (P40763 whole entry): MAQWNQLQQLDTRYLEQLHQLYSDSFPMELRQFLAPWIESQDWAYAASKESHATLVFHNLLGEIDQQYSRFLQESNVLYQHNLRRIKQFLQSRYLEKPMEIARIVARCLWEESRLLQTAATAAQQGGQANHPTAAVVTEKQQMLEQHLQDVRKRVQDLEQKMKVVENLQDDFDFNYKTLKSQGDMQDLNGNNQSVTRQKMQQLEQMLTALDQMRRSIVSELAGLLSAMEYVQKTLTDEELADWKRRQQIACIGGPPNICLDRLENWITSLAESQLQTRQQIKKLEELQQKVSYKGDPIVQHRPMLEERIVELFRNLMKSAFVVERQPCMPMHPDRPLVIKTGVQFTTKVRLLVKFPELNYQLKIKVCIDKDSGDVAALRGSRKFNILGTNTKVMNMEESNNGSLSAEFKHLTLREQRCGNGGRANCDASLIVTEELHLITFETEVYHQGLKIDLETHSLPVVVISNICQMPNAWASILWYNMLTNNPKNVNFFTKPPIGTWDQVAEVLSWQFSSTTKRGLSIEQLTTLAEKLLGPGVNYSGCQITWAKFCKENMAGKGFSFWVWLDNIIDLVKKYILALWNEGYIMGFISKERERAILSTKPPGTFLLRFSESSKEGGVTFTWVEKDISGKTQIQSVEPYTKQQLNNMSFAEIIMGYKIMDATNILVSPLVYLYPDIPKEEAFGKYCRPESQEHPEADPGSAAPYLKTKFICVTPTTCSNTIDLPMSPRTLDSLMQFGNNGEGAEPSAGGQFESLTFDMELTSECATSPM
Myc-STAT3 V461/462/463A (purified), sequence (P40763 whole entry V461A/V462A/V463A): as the sequence (P40763 whole entry) above, with V461A, V462A, V463A counted along it
Myc-STAT3 R382Q (purified), sequence (P40763 whole entry R382Q): as the sequence (P40763 whole entry) above, with R382Q counted along it
Myc-STAT3 C-terminal region (purified), sequence (P40763 465-770): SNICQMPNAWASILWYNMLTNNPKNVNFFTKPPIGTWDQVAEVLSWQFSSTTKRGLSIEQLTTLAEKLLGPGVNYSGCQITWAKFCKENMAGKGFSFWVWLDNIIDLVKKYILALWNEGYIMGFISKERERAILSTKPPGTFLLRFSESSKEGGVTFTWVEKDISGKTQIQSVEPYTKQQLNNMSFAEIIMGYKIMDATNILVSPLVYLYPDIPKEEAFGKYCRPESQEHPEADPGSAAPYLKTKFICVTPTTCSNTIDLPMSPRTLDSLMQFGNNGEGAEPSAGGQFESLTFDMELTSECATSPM
Myc-STAT3 1-355 (purified), sequence (P40763 1-355): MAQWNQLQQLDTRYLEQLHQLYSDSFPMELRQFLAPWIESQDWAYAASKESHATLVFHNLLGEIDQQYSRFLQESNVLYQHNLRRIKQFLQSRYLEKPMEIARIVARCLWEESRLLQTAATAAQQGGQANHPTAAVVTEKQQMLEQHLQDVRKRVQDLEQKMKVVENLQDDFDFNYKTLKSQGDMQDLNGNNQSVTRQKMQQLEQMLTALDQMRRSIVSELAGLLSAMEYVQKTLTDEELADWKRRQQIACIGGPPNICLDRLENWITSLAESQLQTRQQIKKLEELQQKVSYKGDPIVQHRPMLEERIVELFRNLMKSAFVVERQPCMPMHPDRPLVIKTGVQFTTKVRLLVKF

B1: AGG oligo, unlabeled (dsDNA)
DNA 1: TTTGGGAGGCCGAGGTGGG
DNA 2: CCCACCTCGGCCTCCCAAA
Take B1: the binding result in series [1] was “binds”.

B2: AGG-element oligo (dsDNA)
DNA 1: TTTGGGAGGCCGAGGTGGG
DNA 2: CCCACCTCGGCCTCCCAAA
As for B2, the binding result in series [2] is given as “binds”; in series [3], “no binding”; in series [4], “binds”; in series [5], “binds”; in series [6] it was “binds”.
